According to paper PMC7529893, “Structural basis for substrate recognition and chemical inhibition of oncogenic MAGE ubiquitin ligases” (Nature Communications, 2020):
Where “and” joins values, the source holds several entries; their conditions need not be identical. Equal values may be shown once. Square brackets hold non-standard residues; d marks the D form. Ends that are not written are not given here. Peptide text beside a SMILES is read from it. Phe(4-CN) = N#Cc1ccc(C[C@H](N)C(=O)O)cc1; Phe(3-Me) = Cc1cccc(C[C@H](N)C(=O)O)c1

Tests used:
[1] = biological target: T1, GST-MAGE-A11 MHD (Homo sapiens, UniProt P43364); assay: TR-FRET competition assay of PCF11 peptides against GST-MAGE-A11 MHD / FAM-PCF11_4; settings: Fig. 1c, panel of eight PCF11 peptides; read-out: IC50, binding of PCF11 peptide to GST-MAGE-A11 by TR-FRET
T1 construct: GST-MAGE-A11 MHD (human MAGE-A11 MHD amino acid 218-429); made in house; host or cells: E. coli BL21(DE3)
T1 sequence (P43364 218-429): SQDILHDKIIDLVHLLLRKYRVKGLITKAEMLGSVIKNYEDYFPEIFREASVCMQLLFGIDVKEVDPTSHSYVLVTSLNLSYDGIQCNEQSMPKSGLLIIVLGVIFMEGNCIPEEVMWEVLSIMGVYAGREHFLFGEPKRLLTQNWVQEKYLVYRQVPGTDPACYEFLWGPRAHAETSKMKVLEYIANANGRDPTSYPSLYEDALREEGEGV
Experimental: The TR-FRET assay buffer with a formula of 50 mM Tris pH 7.5, 20 mM MgCl2, 0.1 mg/ml BSA and 1 mM DTT was freshly prepared before each experiment. All TR-FRET assays were performed in black 384-well plates with 20 µl/well assay volume in the TR-FRET assay buffer at room temperature (~25 °C). All peptides or compounds were solubilized in DMSO. To test the competitive activity of peptides or compounds against the interaction between GST-MAGE-A11 MHD and FAM-PCF11_4 peptide, 10 µl/well peptide or compound at specified concentration was dispensed into a black 384-well low volume plate, followed by 5 µl/well FAM-PCF11_4 (800 nM), 5 µl/well Tb-anti-GST (20 nM), and GST-MAGE-A11 MHD (20 nM). The assay components in each well was then mixed by shaking the plate on an IKA MTS 2/4 digital microtiter plate shaker (IKA Works; Wilmington, NC, USA) for 1 min. The plate was further centrifuged in an Eppendorf 5810 centrifuge with an A-4-62 swing-bucket rotor (Eppendorf AG, Hamburg, Germany) at 201 g for 30 s. The plate was then incubated for 90 min with a lid to avoid light exposure to the assay components. After incubation, the fluorescent emission signals at 520 nm and 490 nm channels of individual wells were measured with a PHERAstar FS plate reader (BMG Labtech; Durham, NC, USA) by using a 340 nm excitation filter, 100 µs delay time, and 200 µs integration time. The TR-FRET fluorescence emission ratio (TR-FRET signal) for each well was presented as 10,000 × 520 nm/490 nm, which was used directly for curve fitting, or further converted to %Inhibition based on the respective positive and negative controls. The graphic software GraphPad Prism 4.81 (GraphPad Software; La Jolla, CA, USA) was used to generate curves and derive IC50 values of tested peptides or compounds, if applicable.
TR-FRET inhibitory activity characterization of a panel of PCF11 peptides against the interaction between GST-MAGE-A11 MHD and FAM-PCF11_4 was performed as follows. In a 20-µl/well assay volume, dilutions of PCF11_1 to PCF11_8 peptides (concentrations ranged from 3.1 nM to 100 µM for peptides PCF11_4, PCF11_5, PCF11_6 and PCF11_8 in a 1-to-2 dilution pattern for 16 concentration levels, and ranged from 48.9 nM to 100 µM for peptides of PCF11_1, PCF11_2, PCF11_3, and PCF11_7 in a 1-to-2 dilution pattern for 12 concentration levels), 200 nM FAM-PCF11_4, 5 nM Tb-anti-GST and 5 nM GST-MAGE-A11 were mixed together and incubated for 90 min before the TR-FRET signal for each well was measured. The final DMSO concentration was 1.1% (v/v). […] The signal of each peptide-treated well (Signalpeptide) was normalized to the positive and negative controls to derive %inhibition of the peptide at a specific concentration with Eq. (1). Where applicable, the %Inhibition data were fit into a Sigmoidal dose response equation to derive IC50 values.1 %Inhibition=100%−100%×(Signalpeptide−SignalDMSOwithoutGST-MAGEA11)/SignalDMSO−SignalDMSOwithoutGST-MAGEA11.

[2] = biological target: T2, MAGE-A11 MHD (218-429), as part of the crystallised fusion (human, UniProt P43364 218-429); assay: crystal structure; PCF11 677-701 fused by GGSGRP to the N-terminus of MAGE-A11 MHD 218-429; sitting drop, 20 °C, 0.2 M Na acetate, 0.1 M Bis Tris propane pH 7.5, 20% PEG 3350; four protomers in the P 1 cell; settings: both partners purified
T2 construct: In the crystal it follows PCF11 677-701 and the linker GGSGRP (whole chain: m25); also called MAGE-A11 MHD (S218 to C-terminus); source: E. coli BL21(DE3), purified, on one chain with the PCF11 degron
T2 sequence (looked up): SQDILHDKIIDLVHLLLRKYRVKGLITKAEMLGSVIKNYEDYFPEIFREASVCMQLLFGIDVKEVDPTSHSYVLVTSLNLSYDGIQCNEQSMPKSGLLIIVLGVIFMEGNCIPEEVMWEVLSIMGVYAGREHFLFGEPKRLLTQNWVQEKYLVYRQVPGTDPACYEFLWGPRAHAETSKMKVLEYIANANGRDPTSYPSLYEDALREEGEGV

[3] = biological target: T3, GST-MAGE-A11 MHD (human MAGE-A11 MHD amino acid 218-429) (human, UniProt P43364 218-429); assay: FRET
T3 chain: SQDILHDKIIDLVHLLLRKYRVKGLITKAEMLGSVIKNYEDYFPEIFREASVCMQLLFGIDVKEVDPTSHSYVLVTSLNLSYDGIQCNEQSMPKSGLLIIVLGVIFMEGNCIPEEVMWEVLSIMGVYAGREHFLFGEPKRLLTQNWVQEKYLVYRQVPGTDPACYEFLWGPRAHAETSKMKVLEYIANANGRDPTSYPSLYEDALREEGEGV

[4] = biological target: T4, GST-MAGE-A11 MHD (human MAGE-A11 MHD amino acid 218-429) (human, UniProt P43364 218-429); assay: AlphaScreen or HTRF; TR-FRET competition: unlabelled peptide titrated against 200 nM FAM-PCF11_4, 5 nM Tb-anti-GST and 5 nM GST-MAGE-A11 MHD; 50 mM Tris pH 7.5, 20 mM MgCl2, 0.1 mg/ml BSA, 1 mM DTT; room temperature (~25 °C), 90 min; settings: both partners purified
T4 construct: also called recombinant GST-MAGE-A11; source: E. coli BL21(DE3), purified (GSTrap, Resource Q)
T4 sequence (looked up): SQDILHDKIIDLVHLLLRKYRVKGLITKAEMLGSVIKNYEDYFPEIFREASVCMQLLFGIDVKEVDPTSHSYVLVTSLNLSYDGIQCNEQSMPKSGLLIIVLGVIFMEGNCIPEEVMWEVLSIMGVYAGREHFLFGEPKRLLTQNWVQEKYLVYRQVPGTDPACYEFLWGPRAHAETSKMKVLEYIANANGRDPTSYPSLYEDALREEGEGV

[5] = biological target: T3, GST-MAGE-A11 MHD (human MAGE-A11 MHD …); assay: FRET

## CC[C@H](C)[C@H](NC(=O)[C@H](CCC(N)=O)NC(=O)[C@H](Cc1c[nH]cn1)NC(=O)[C@@H](NC(=O)[C@@H](NC(=O)[C@@H](NC(=O)[C@H](CC(C)C)NC(=O)[C@H](Cc1ccccc1)NC(=O)[C@H](CC(=O)O)NC(=O)[C@H](CC(=O)O)NC(=O)[C@@H](N)CCC(N)=O)C(C)C)C(C)C)C(C)C)C(=O)N[C@@H](CCCNC(=N)N)C(=O)N[C@@H](CCC(N)=O)C(=O)N[C@@H](CC(C)C)C(=O)N[C@@H](Cc1ccccc1)C(=O)N[C@@H](CCC(N)=O)C(=O)N[C@@H](Cc1ccc(O)cc1)C(=O)N[C@@H](CCC(N)=O)C(=O)N[C@@H](CCC(=O)O)C(=O)NCC(=O)O [PCF11_5] (H-QDDFLVVVHQIRQLFQYQEG-OH; N-terminus assumed)
[1]
  IC50: 77 nM

## CC[C@H](C)[C@H](NC(=O)[C@H](CCC(N)=O)NC(=O)[C@H](Cc1c[nH]cn1)NC(=O)[C@@H](N)C(C)C)C(=O)N[C@@H](CCCNC(=N)N)C(=O)N[C@@H](CCC(N)=O)C(=O)N[C@@H](CC(C)C)C(=O)N[C@@H](Cc1ccccc1)C(=O)N[C@@H](CCC(N)=O)C(=O)N[C@@H](Cc1ccc(O)cc1)C(=O)N[C@@H](CCC(N)=O)C(=O)N[C@@H](CCC(=O)O)C(=O)NCC(=O)N[C@H](C(=O)N[C@@H](CCCNC(=N)N)C(=O)O)C(C)C [PCF11_7] (H-VHQIRQLFQYQEGVR-OH; N-terminus assumed)
[1]
  IC50: > 50000 nM

## CC[C@H](C)[C@H](NC(=O)[C@H](CCC(N)=O)NC(=O)[C@H](Cc1c[nH]cn1)NC(=O)[C@@H](N)C(C)C)C(=O)N[C@@H](CCCNC(=N)N)C(=O)N[C@@H](CCC(N)=O)C(=O)N[C@@H](CC(C)C)C(=O)N[C@@H](Cc1ccccc1)C(=O)N[C@@H](CCC(N)=O)C(=O)N[C@@H](Cc1ccc(O)cc1)C(=O)N[C@@H](CCC(N)=O)C(=O)N[C@@H](CCC(=O)O)C(=O)NCC(=O)N[C@H](C(=O)N[C@@H](CCCNC(=N)N)C(=O)N[C@@H](CCC(=O)O)C(=O)N[C@@H](CCC(=O)O)C(=O)N[C@@H](CCC(N)=O)C(=O)N[C@@H](CCCNC(=N)N)C(=O)N[C@@H](CO)C(=O)O)C(C)C [PCF11_8] (H-VHQIRQLFQYQEGVREEQRS-OH; N-terminus assumed)
[1]
  IC50: > 50000 nM

B1: PCF11 degron peptide (human PCF11 amino acid 677-701), as part of the crystallised fusion (peptide, UniProt O94913 677-701, looked up)
chain: ITQDDFLVVVHQIRQLFQYQEGVRE
notes: PCF11, human, amino acids 677-701; In the crystal it is joined by the linker GGSGRP to the N-terminus of m27 (whole chain: m25); also called PCF11 peptide; source: E. coli BL21(DE3), purified, on one chain with MAGE-A11 MHD
[2]
  binding result: binds

B2: PCF11_6 peptide F682A (peptide)
chain: ALVVVHQIRQLFQYQ
modifications: same inferred limits as m7
[3]
  IC50: 570 nM

B3: PCF11 peptide (FLVVVHQIRQLF*Q) containing 3-methyl-phenylalanine at position 12 (peptide)
peptide: FLVVVHQIRQL[Phe(3-Me)]Q
notes: PCF11 degron, human; the phenylalanine at position 12 (F693) is 3-methyl-phenylalanine; also called 3-methyl-phenylalanine variant; source: synthetic peptide
[4]
  IC50: 1.7 nM

B4: PCF11_6 peptide I689A (peptide)
chain: FLVVVHQARQLFQYQ
[3]
  IC50: 1020 nM

B5: PCF11_6 peptide (peptide)
chain: FLVVVHQIRQLFQYQ
modifications: exact ends are only in Fig. 1b; 682-696 is inferred from 'three overlapping peptides centered on PCF11 amino acids 682-696' (the later 13-residue model peptide is 682-694)
[3]
  IC50: 70 nM and 65 nM

B6: PCF11_6 peptide R690A (peptide)
chain: FLVVVHQIAQLFQYQ
[3]
  IC50: 15600 nM

B7: PCF11_6 peptide L692A (peptide)
chain: FLVVVHQIRQAFQYQ
[3]
  IC50: 540 nM

B8: PCF11 peptide (FLVVVHQIRQLF*Q) containing 4-cyano-phenylalanine at position 12 (peptide)
peptide: FLVVVHQIRQL[Phe(4-CN)]Q
notes: PCF11 degron, human; the phenylalanine at position 12 (F693) is 4-cyano-phenylalanine; also called 4-cyano-phenylalanine variant; source: synthetic peptide
[4]
  IC50: 663 nM

B9: PCF11 peptide (FLVVVHQIRQLFQ) containing phenylalanine at position 12 (peptide)
peptide: FLVVVHQIRQLFQ
notes: PCF11 degron, human; position +1 is F682 and position +12 is F693; also called model 13 amino acid PCF11 peptide degron; natural PCF11 degron peptide; source: synthetic peptide
[4]
  binding result: binds
[5]
  IC50: 60.4 nM

B10: PCF11_6 peptide F693A (peptide)
chain: FLVVVHQIRQLAQYQ
[3]
  IC50: 2140 nM
